Among the data in the Human Domainome abundance scans (Beltran et al. 2025) are abundance fitness values, retold here.

± gives the uncertainty stated by the source.

Sequences and labels used below:
B1: Dynamin-binding protein, residues 242 to 304; numbered along this chain, Q6XZF7 (parent)
chain: EEPGTYGVALYRFQALEPNELDFEVGDKIRILATLEDGWLEGSLKGRTGIFPYRFVKLCPDTR

In this data set the parent is B1. The experiment in a line: abundance fitness (aPCA) (normalised: wild type 0, dead -1); higher = more abundant; growth selection in yeast, the domain comes from the species named. The conditions noted are these: Homo sapiens.
For the variant EEPGTYGVALYRFQALEPNELDFEVGDKIRILATLEDGWLEGSLKGRTGIFPYRFVKLCPDTP [R63P], the abundance fitness amounted to 0.164 ± 0.089.
Under EEPGTYGVALYRFQALEPNELDFEVGDKIRILATLEDGWLEGSLKGRTGIFPYRFVKLCPDTN [R63N] stands 0.168 ± 0.064.
Under EEPGTYGVALYRFWALEPNELDFEVGDKIRILATLEDGWLEGSLKGRTGIFPYRFVKLCPDTR [Q14W] stands -0.572 ± 0.18; under EEPGTYGVALYRSQALEPNELDFEVGDKIRILATLEDGWLEGSLKGRTGIFPYRFVKLCPDTR [F13S], -0.534 ± 0.063.
In the case of EEPGTYGVALYRWQALEPNELDFEVGDKIRILATLEDGWLEGSLKGRTGIFPYRFVKLCPDTR [F13W], the abundance fitness is -0.483 ± 0.23.
To EEPGTYGVALYRFQALEPNELDFEVGDKIRILATEEDGWLEGSLKGRTGIFPYRFVKLCPDTR [L35E] belongs -0.876 ± 0.4.
Regarding EEPGTYGVALYRFQALEPNELDFEVGDKIRILATLEDGWLEGSLKGRTGIFPYRFTKLCPDTR [V56T], the abundance fitness is -0.594 ± 0.087.
To EEPGTYGVALYRFQALEPNELDFEVGDKIRILATLEDGWLEGSLKGRTGIFPYRFIKLCPDTR [V56I] belongs -0.141 ± 0.058; to EEPGTYGVALYRFQALEPNELDFEVGDKIRILHTLEDGWLEGSLKGRTGIFPYRFVKLCPDTR [A33H], -0.021 ± 0.081.
Regarding EEPGTYGVALYRFQALEPNELDFEVGDKIRILYTLEDGWLEGSLKGRTGIFPYRFVKLCPDTR [A33Y], the abundance fitness was -0.568 ± 0.095.
Take EEPGTYGVALYRFQALEPNELDFEVGDKIRILATLEDGWLEGSLKGRTMIFPYRFVKLCPDTR [G49M]: the abundance fitness is -0.711 ± 0.4.
Take EEPGTYGVALYRFQALEPNELDFEVGDKIRILATLEDGWLEGSLKGRTPIFPYRFVKLCPDTR [G49P]: the abundance fitness was -1.08 ± 0.33.
On to EEPGTYGVALYRFQALEPNELDFEVGDKIRILATLEDGWLEGSLKGRTCIFPYRFVKLCPDTR [G49C], for which the abundance fitness was -0.422 ± 0.071.
To AEPGTYGVALYRFQALEPNELDFEVGDKIRILATLEDGWLEGSLKGRTGIFPYRFVKLCPDTR [E1A] belongs -0.512 ± 0.13.
Consider MEPGTYGVALYRFQALEPNELDFEVGDKIRILATLEDGWLEGSLKGRTGIFPYRFVKLCPDTR [E1M], for which the abundance fitness is -0.02 ± 0.17.
In the case of KEPGTYGVALYRFQALEPNELDFEVGDKIRILATLEDGWLEGSLKGRTGIFPYRFVKLCPDTR [E1K], the abundance fitness came out at 0.009 ± 0.14.
To EEPGTYEVALYRFQALEPNELDFEVGDKIRILATLEDGWLEGSLKGRTGIFPYRFVKLCPDTR [G7E] belongs -0.209 ± 0.18; to EEPGTYAVALYRFQALEPNELDFEVGDKIRILATLEDGWLEGSLKGRTGIFPYRFVKLCPDTR [G7A], 0.36 ± 0.056; to EEPGTYGVALYRFQALEPNFLDFEVGDKIRILATLEDGWLEGSLKGRTGIFPYRFVKLCPDTR [E20F], 0.155 ± 0.056.
To EEPGTYGVALYRFQALEPNELDFEVGDKIRILATLEDGWLEGSLKGRTGIFPYRFVKICPDTR [L58I] belongs -0.055 ± 0.056; to EEPGTYGVALYRFQALEDNELDFEVGDKIRILATLEDGWLEGSLKGRTGIFPYRFVKLCPDTR [P18D], -0.044 ± 0.059; to EEPGTYGVALYRFQALEHNELDFEVGDKIRILATLEDGWLEGSLKGRTGIFPYRFVKLCPDTR [P18H], -0.291 ± 0.078.
Under EEPGTYGVALYRFQALEPNELDFEVMDKIRILATLEDGWLEGSLKGRTGIFPYRFVKLCPDTR [G26M] stands -1.02 ± 0.26; under EEPGTYGVALYRFQALEPNELDFEVGDKIRILATLEDGWLEGSLKGRTGHFPYRFVKLCPDTR [I50H], -0.681 ± 0.12.
For the variant EEPGTYGVALYRFQALEPNELDFEVGDKIRILATLEDGWLEGSLKGRTGYFPYRFVKLCPDTR [I50Y], the abundance fitness is -0.533 ± 0.073.
To EEPGTYGVALYRFQALEPNELDFEVGDKIRILATLEDGWLEGSLKGHTGIFPYRFVKLCPDTR [R47H] belongs -0.283 ± 0.08.
To EEPGTYGVALYRFQALEPNELDFEVGDKIRILATLEDGWLEGSLKGATGIFPYRFVKLCPDTR [R47A] belongs -0.552 ± 0.12; to EEPGTYGVALYRFQALEPNELDFEVGDKIRILATLEDGWLEGSLKGETGIFPYRFVKLCPDTR [R47E], 0.018 ± 0.11; to EEPGTYGTALYRFQALEPNELDFEVGDKIRILATLEDGWLEGSLKGRTGIFPYRFVKLCPDTR [V8T], -0.047 ± 0.076.
As to EEPGTYGCALYRFQALEPNELDFEVGDKIRILATLEDGWLEGSLKGRTGIFPYRFVKLCPDTR [V8C], the abundance fitness is -0.531 ± 0.099.
As to EVPGTYGVALYRFQALEPNELDFEVGDKIRILATLEDGWLEGSLKGRTGIFPYRFVKLCPDTR [E2V], the abundance fitness was -0.228 ± 0.058.
Turning to EEPGTYGVALYRFQALEPNELDDEVGDKIRILATLEDGWLEGSLKGRTGIFPYRFVKLCPDTR [F23D], the abundance fitness was -0.867 ± 0.14.
Regarding EEPGTYGVALYRFQALEPNELDAEVGDKIRILATLEDGWLEGSLKGRTGIFPYRFVKLCPDTR [F23A], the abundance fitness is -0.585 ± 0.1.
To EEPGTYGVALYRFQALEPNELDREVGDKIRILATLEDGWLEGSLKGRTGIFPYRFVKLCPDTR [F23R] belongs -0.684 ± 0.095; to EEPGTYGVALYRFQALEPNELDFEVGRKIRILATLEDGWLEGSLKGRTGIFPYRFVKLCPDTR [D27R], -0.79 ± 0.1; to EEPGTYGVALYRFQALEPNELDFEVGDKIRILATLEDGWLEGSLKGRTGIFPYRFVKLCLDTR [P60L], -0.434 ± 0.077.
In the case of EEPGTYGVALYRFQSLEPNELDFEVGDKIRILATLEDGWLEGSLKGRTGIFPYRFVKLCPDTR [A15S], the abundance fitness worked out at 0.131 ± 0.048.
Take EEPGTYGVALYRFQALEPNELDFEVGDKIRIAATLEDGWLEGSLKGRTGIFPYRFVKLCPDTR [L32A]: the abundance fitness is -0.866 ± 0.13.
In the case of EEPGTYGVALYRFQALEPNELDFEVGDKIRIHATLEDGWLEGSLKGRTGIFPYRFVKLCPDTR [L32H], the abundance fitness was -0.008 ± 0.062.
Under EEPGTYGVALYRFQALEPNELDFEVGDKIRILATLEDGWLEGSLQGRTGIFPYRFVKLCPDTR [K45Q] stands -0.157 ± 0.15; under EEPGTYGVALYRFQALEPNELDFEVGDKIRILATLEDGWLEGSLCGRTGIFPYRFVKLCPDTR [K45C], -0.429 ± 0.081.
Under EEPGTYGVALYRFQALEPNELDFEVGDKIRILATLEDGWLEGSLKGRTGIFPYRAVKLCPDTR [F55A] stands -0.091 ± 0.04.
